Data: patent US20240035022A1

Target: hCD52 peptide mimetope (affinity measurement of Table 1) (human)
Assay: affinity on a hCD52 peptide mimetope, method not stated (footnote of Table 1)

Substance: Campath-1H (antibody)
- Kd: 68 nM
